Data reported in PMC5817723, “^99mTc-HYNIC-(tricine/EDDA)-FROP peptide for MCF-7 breast tumor targeting and imaging” (Journal of Biomedical Science, 2018).
Like-named read-outs stand apart in the source and are kept apart here. Residues, ends and D or L forms follow the SMILES beside them. *: point of attachment. HYNIC = NNc1ccc(C(=O)*)cn1

Assays:
[1] = Partition coefficient between n-octanol and PBS; format: physicochemical; settings: distribution between n-octanol and PBS; method of ref 22; mean ± SD; read-out: Log p (partition coefficient)
Experimental: The stability of ^99mTc-HYNIC-FROP in normal saline was evaluated using ITLC at various times (2, 4, 6 and 24 h) at room temperature. For serum stability, ^99mTc-HYNIC-FROP (30 μL) was incubated with freshly human plasma serum (90 μL) in triplicate at 37 °C. At 1 h of incubation, the plasma proteins were precipitated with a mixture of acetonitrile/ethanol (1:1 v/v) and centrifugation. The supernatant layer was filtered through a 0.22 μm filter and then the fraction was analyzed by RP-HPLC. Partition coefficient of ^99mTc-HYNIC-FROP was determined via method that previously was described.

[2] = Biodistribution in MCF-7 tumor-bearing nude mice; format: in vivo; settings: female, C57 nu/nu, mouse, iv, total radioactivity; for tissue uptake at 0.5 h / tissue to tissue ratio at 0.5 h: 30 min p.i.
Experimental: The all animal studies were approved by Research and Ethical Committees of Mazandaran University of Medical Sciences. For xenografting, female C57 nu/nu mice were injected subcutaneously on the right upper back with a suspension of 1 × 10^7 MCF-7 cells and Matrigel® (BD, USA) and the tumors were allowed to grow for about 7–8 weeks. Estradiol valerate was injected subcutaneously into nude mice for 1 week. After tumor size reached in 1 cm^3, this tumor was removed from mouse in aseptic condition and was mechanically squelched with a mortar and with adding complete medium. Squelch of tumor tissue was centrifuged at 1500 rpm for 7 min at 4 °C. The upper medium was removed from tube and then complete medium and estradiol were added to cells pellet. […] Xenografts were allowed to develop during 2 months and the average tumor size was 1.01 ± 0.24 g. The in vivo biodistribution of ^99mTc-HYNIC-(tricine/EDDA)-Lys-FROP was performed on tumor bearing mice at 15 and 30 min post-injection. The mice (four mice in each time group) were injected with 100 μL of HYNIC-(tricine/EDDA)-Lys-FROP (1 μg) via a lateral tail vein. Mice were sacrificed with injection of a lethal dose of ketamine/xylazine after 15 and 30 min. The blood was collected from the heart puncture and the mice were dissected. Major organs (tumor, blood, heart, lung, liver, kidney, spleen, salivary gland, stomach, intestine, muscle and bone) were placed into pre weighed gamma counter tubes and radioactivity in each organ and tissue was measured using a gamma counter and expressed as a percent injected dose (% ID/g).
To confirm that the radiolabeled peptide was taken up specifically by MCF-7 tumor in vivo, the biodistribution of ^99mTc-HYNIC-FROP was performed with co-injection of a 500-fold (0.5 mg) excess non-radiolabelled FROP-1 and radiolabelled peptide in mice (N = 3 mice in this group). The unlabeled peptide was injected at 30 min before the injection of radiolabeled peptide.

MCF-7 cells = experiment: In vitro specific binding (blocking) on MCF-7 cells; format: cell-based, human; settings: pre-saturation 0.5 h at 37 °C with unlabeled FROP
Experimental: For specific binding experiment, the MCF-7 cells were saturated with 500-fold excess of unlabeled peptide prior adding of the ^99mTc-HYNIC-FROP to cells for 30 min.

[3] = In vitro stability in succinate buffer (peptide reaction mixture), %RCP by ITLC; format: physicochemical; settings: room temperature, TLC, n = 3
Experimental: The radiochemical purity was determined by instant thin layer chromatography (ITLC) in different mobile phases such as methyl ethyl ketone (MEK), acetonitrile/water (50/50) and citrate solvent (0.1 M, pH 5.2) using a Lablogic mini scan TLC scanner (Sheffield, UK) and Laura image analysis software. In MEK, free ^99mTcO4^− migrated with the solvent front, while radiolabeled peptide remained at the application point. In the acetonitrile/water system, the colloids remained at the application point, while radiolabeled peptide migrated in front of solvent. The amount of labeled co-ligand was determined by citrate solvent, that free ^99mTcO4 Na and labeled co-ligand migrate in front of solvent while both RHT and labeled peptide (^99mTc-FROP) remind at the origin. A NaI (Tl) gamma detector (Delshid, Tehran, Iran) was used to for measurement of radioactivity.
[…] For serum stability, ^99mTc-HYNIC-FROP (30 μL) was incubated with freshly human plasma serum (90 μL) in triplicate at 37 °C. At 1 h of incubation, the plasma proteins were precipitated with a mixture of acetonitrile/ethanol (1:1 v/v) and centrifugation. The supernatant layer was filtered through a 0.22 μm filter and then the fraction was analyzed by RP-HPLC. Partition coefficient of ^99mTc-HYNIC-FROP was determined via method that previously was described.

SMILES: CSCC[C@H](NC(=O)[C@H](CC(C)C)NC(=O)[C@H](CCC(=O)O)NC(=O)[C@H](Cc1ccc(O)cc1)NC(=O)[C@H](CC(=O)O)NC(=O)[C@@H](N)CCC(=O)O)C(=O)N[C@@H](CC(=O)O)C(=O)N[C@@H](CC(C)C)C(=O)N[C@@H](CC(C)C)C(=O)N[C@@H](C)C(=O)N[C@@H](Cc1ccc(O)cc1)C(=O)N[C@@H](CC(C)C)C(=O)N[C@@H](CCCCNC(=O)c1ccc(NN)nc1)C(=O)O [^99mTc-HYNIC-FROP, metal not drawn] (H-EDYELMDLLAYLK(HYNIC)-OH)
- logD [1]: -2.03 ± 0.03
- tissue uptake at 0.25 h ([2]; blood, 1 ug, i.v. tail vein 1 μg, 15 min p.i., n = 4, read-out: Blood uptake): 0.48 ± 0.09 %ID/g
- tissue uptake at 0.5 h ([2]; blood, 1 ug, i.v. tail vein 1 μg, n = 4, read-out: Blood uptake): 0.35 ± 0.1 %ID/g
- tissue uptake at 0.25 h ([2]; blood, Block: 500-fold (0.5 mg) excess unlabelled FROP-1, 15 min p.i., n = 3, read-out: Blood uptake): 0.69 ± 0.16 %ID/g
- tissue uptake at 0.25 h ([2]; bone, 1 ug, i.v. tail vein 1 μg, 15 min p.i., n = 4, read-out: Bone uptake): 0.18 ± 0.02 %ID/g
- tissue uptake at 0.5 h ([2]; bone, 1 ug, i.v. tail vein 1 μg, n = 4, read-out: Bone uptake): 0.24 ± 0.12 %ID/g
- tissue uptake at 0.25 h ([2]; heart, 1 ug, i.v. tail vein 1 μg, 15 min p.i., n = 4, read-out: Heart uptake): 0.49 ± 0.08 %ID/g
- tissue uptake at 0.5 h ([2]; heart, 1 ug, i.v. tail vein 1 μg, n = 4, read-out: Heart uptake): 0.26 ± 0.11 %ID/g
- tissue uptake at 0.25 h ([2]; heart, Block: 500-fold (0.5 mg) excess unlabelled FROP-1, 15 min p.i., n = 3, read-out: Heart uptake): 0.45 ± 0.03 %ID/g
- tissue uptake at 0.25 h ([2]; intestine, 1 ug, i.v. tail vein 1 μg, 15 min p.i., n = 4, read-out: Intestine uptake): 0.34 ± 0.09 %ID/g
- tissue uptake at 0.5 h ([2]; intestine, 1 ug, i.v. tail vein 1 μg, n = 4, read-out: Intestine uptake): 0.79 ± 0.25 %ID/g
- tissue uptake at 0.25 h ([2]; intestine, Block: 500-fold (0.5 mg) excess unlabelled FROP-1, 15 min p.i., n = 3, read-out: Intestine uptake): 0.64 ± 0.09 %ID/g
- tissue uptake at 0.25 h ([2]; 1 ug, MCF-7 tumor, i.v. tail vein 1 μg, 15 min p.i., n = 4, read-out: Tumor uptake): 0.25 ± 0.02 %ID/g
- tissue uptake at 0.5 h ([2]; 1 ug, MCF-7 tumor, i.v. tail vein 1 μg, n = 4, read-out: Tumor uptake): 0.38 ± 0.21 %ID/g
- tissue uptake at 0.25 h ([2]; MCF-7 tumor, Block: 500-fold (0.5 mg) excess unlabelled FROP-1, 15 min p.i., n = 3, read-out: Tumor uptake): 0.09 ± 0.02 %ID/g
- tissue uptake at 0.25 h ([2]; kidney, 1 ug, i.v. tail vein 1 μg, 15 min p.i., n = 4, read-out: Kidney uptake): 2.22 ± 0.16 %ID/g
- tissue uptake at 0.5 h ([2]; kidney, 1 ug, i.v. tail vein 1 μg, n = 4, read-out: Kidney uptake): 1.73 ± 0.15 %ID/g
- tissue uptake at 0.25 h ([2]; kidney, Block: 500-fold (0.5 mg) excess unlabelled FROP-1, 15 min p.i., n = 3, read-out: Kidney uptake): 2.97 ± 0.23 %ID/g
- tissue uptake at 0.25 h ([2]; liver, 1 ug, i.v. tail vein 1 μg, 15 min p.i., n = 4, read-out: Liver uptake): 0.2 ± 0.02 %ID/g
- tissue uptake at 0.5 h ([2]; liver, 1 ug, i.v. tail vein 1 μg, n = 4, read-out: Liver uptake): 0.14 %ID/g
- tissue uptake at 0.25 h ([2]; liver, Block: 500-fold (0.5 mg) excess unlabelled FROP-1, 15 min p.i., n = 3, read-out: Liver uptake): 0.26 ± 0.04 %ID/g
- tissue uptake at 0.25 h ([2]; lung, 1 ug, i.v. tail vein 1 μg, 15 min p.i., n = 4, read-out: Lung uptake): 0.45 ± 0.08 %ID/g
- tissue uptake at 0.5 h ([2]; lung, 1 ug, i.v. tail vein 1 μg, n = 4, read-out: Lung uptake): 0.41 ± 0.26 %ID/g
- tissue uptake at 0.25 h ([2]; lung, Block: 500-fold (0.5 mg) excess unlabelled FROP-1, 15 min p.i., n = 3, read-out: Lung uptake): 0.6 ± 0.04 %ID/g
- tissue uptake at 0.25 h ([2]; muscle, 1 ug, i.v. tail vein 1 μg, 15 min p.i., n = 4, read-out: Muscle uptake): 0.08 ± 0.01 %ID/g
- tissue uptake at 0.5 h ([2]; muscle, 1 ug, i.v. tail vein 1 μg, n = 4, read-out: Muscle uptake): 0.21 ± 0.16 %ID/g
- tissue uptake at 0.25 h ([2]; muscle, Block: 500-fold (0.5 mg) excess unlabelled FROP-1, 15 min p.i., n = 3, read-out: Muscle uptake): 0.15 ± 0.01 %ID/g
- tissue uptake at 0.25 h ([2]; salivary gland and thyroid, 1 ug, i.v. tail vein 1 μg, 15 min p.i., n = 4, read-out: S.T (Salivary Gland and Thyroid) uptake): 0.25 ± 0.03 %ID/g
- tissue uptake at 0.5 h ([2]; salivary gland and thyroid, 1 ug, i.v. tail vein 1 μg, n = 4, read-out: S.T (Salivary Gland and Thyroid) uptake): 0.32 ± 0.22 %ID/g
- tissue uptake at 0.25 h ([2]; salivary gland and thyroid, Block: 500-fold (0.5 mg) excess unlabelled FROP-1, 15 min p.i., n = 3, read-out: S.T (Salivary Gland and Thyroid) uptake): 0.25 ± 0.01 %ID/g
- tissue uptake at 0.25 h ([2]; spleen, 1 ug, i.v. tail vein 1 μg, 15 min p.i., n = 4, read-out: Spleen uptake): 0.15 ± 0.01 %ID/g
- tissue uptake at 0.5 h ([2]; spleen, 1 ug, i.v. tail vein 1 μg, n = 4, read-out: Spleen uptake): 0.28 ± 0.11 %ID/g
- tissue uptake at 0.25 h ([2]; spleen, Block: 500-fold (0.5 mg) excess unlabelled FROP-1, 15 min p.i., n = 3, read-out: Spleen uptake): 0.23 ± 0.07 %ID/g
- tissue uptake at 0.25 h ([2]; stomach, 1 ug, i.v. tail vein 1 μg, 15 min p.i., n = 4, read-out: Stomach uptake): 0.21 ± 0.01 %ID/g
- tissue uptake at 0.5 h ([2]; stomach, 1 ug, i.v. tail vein 1 μg, n = 4, read-out: Stomach uptake): 0.33 ± 0.12 %ID/g
- tissue uptake at 0.25 h ([2]; stomach, Block: 500-fold (0.5 mg) excess unlabelled FROP-1, 15 min p.i., n = 3, read-out: Stomach uptake): 0.26 ± 0.01 %ID/g
- tissue to tissue ratio at 0.25 h ([2]; tumor and blood, 1 ug, 15 min p.i., n = 4, read-out: Tumor/Blood ratio): 0.53 ± 0.15
- tissue to tissue ratio at 0.5 h ([2]; tumor and blood, 1 ug, n = 4, read-out: Tumor/Blood ratio): 1.09 ± 0.47
- tissue to tissue ratio at 0.25 h ([2]; tumor and blood, Block with excess FROP-1, 15 min p.i., n = 3, read-out: Tumor/Blood ratio): 0.14 ± 0.06
- tissue to tissue ratio at 0.25 h ([2]; tumor and bone, 1 ug, 15 min p.i., n = 4, read-out: Tumor/Bone ratio): 1.36 ± 0.28
- tissue to tissue ratio at 0.5 h ([2]; tumor and bone, 1 ug, n = 4, read-out: Tumor/Bone ratio): 1.57 ± 0.48
- tissue to tissue ratio at 0.25 h ([2]; tumor and bone, Block with excess FROP-1, 15 min p.i., n = 3, read-out: Tumor/Bone ratio): 0.4 ± 0.09
- tissue to tissue ratio at 0.25 h ([2]; tumor and liver, 1 ug, 15 min p.i., n = 4, read-out: Tumor/Liver ratio): 1.24 ± 0.28
- tissue to tissue ratio at 0.5 h ([2]; tumor and liver, 1 ug, n = 4, read-out: Tumor/Liver ratio): 2.62 ± 1.38
- tissue to tissue ratio at 0.25 h ([2]; tumor and liver, Block with excess FROP-1, 15 min p.i., n = 3, read-out: Tumor/Liver ratio): 0.36 ± 0.13
- tissue to tissue ratio at 0.25 h ([2]; tumor and muscle, 1 ug, 15 min p.i., n = 4, read-out: Tumor/Muscle ratio): 3.03 ± 0.12
- tissue to tissue ratio at 0.5 h ([2]; tumor and muscle, 1 ug, n = 4, read-out: Tumor/Muscle ratio): 1.94 ± 0.46
- tissue to tissue ratio ([2]; tumor and muscle, 1 ug, MCF-7 tumor-bearing nude mice, only 15 and 30 min p.i. tested, read-out: time of maximum tumor/muscle ratio): 15
- tissue to tissue ratio at 0.25 h ([2]; tumor and muscle, Block with excess FROP-1, 15 min p.i., n = 3, read-out: Tumor/Muscle ratio): 0.6 ± 0.12
- tissue to tissue ratio at 0.25 h ([2]; tumor and spleen, 1 ug, 15 min p.i., n = 4, read-out: Tumor/Spleen ratio): 1.61 ± 0.22
- tissue to tissue ratio at 0.5 h ([2]; tumor and spleen, 1 ug, n = 4, read-out: Tumor/Spleen ratio): 1.56 ± 1.04
- tissue to tissue ratio at 0.25 h ([2]; tumor and spleen, Block with excess FROP-1, 15 min p.i., n = 3, read-out: Tumor/Spleen ratio): 0.42 ± 0.14
- binding to MCF-7 cells with 500-fold excess of unlabeled peptide (FROP) (MCF-7 cells): significant reduction
- %RCP in succinate buffer (peptide reaction mixture) ([3]; 2 h): 99.6 ± 0.2%
- %RCP in succinate buffer (peptide reaction mixture) ([3]; 4 h): 99.5 ± 0.4%
- %RCP in succinate buffer (peptide reaction mixture) ([3]; 6 h): 99.1 ± 0.9%
- %RCP in succinate buffer (peptide reaction mixture) ([3]; 24 h): 96.8 ± 2.4%
